Source: US6558913

Target: factor Xa-activated factor V(Q506) (UniProt P12259)
Chain of UniProt P12259 (P12259 29-737 R534Q, chain 1 of 2): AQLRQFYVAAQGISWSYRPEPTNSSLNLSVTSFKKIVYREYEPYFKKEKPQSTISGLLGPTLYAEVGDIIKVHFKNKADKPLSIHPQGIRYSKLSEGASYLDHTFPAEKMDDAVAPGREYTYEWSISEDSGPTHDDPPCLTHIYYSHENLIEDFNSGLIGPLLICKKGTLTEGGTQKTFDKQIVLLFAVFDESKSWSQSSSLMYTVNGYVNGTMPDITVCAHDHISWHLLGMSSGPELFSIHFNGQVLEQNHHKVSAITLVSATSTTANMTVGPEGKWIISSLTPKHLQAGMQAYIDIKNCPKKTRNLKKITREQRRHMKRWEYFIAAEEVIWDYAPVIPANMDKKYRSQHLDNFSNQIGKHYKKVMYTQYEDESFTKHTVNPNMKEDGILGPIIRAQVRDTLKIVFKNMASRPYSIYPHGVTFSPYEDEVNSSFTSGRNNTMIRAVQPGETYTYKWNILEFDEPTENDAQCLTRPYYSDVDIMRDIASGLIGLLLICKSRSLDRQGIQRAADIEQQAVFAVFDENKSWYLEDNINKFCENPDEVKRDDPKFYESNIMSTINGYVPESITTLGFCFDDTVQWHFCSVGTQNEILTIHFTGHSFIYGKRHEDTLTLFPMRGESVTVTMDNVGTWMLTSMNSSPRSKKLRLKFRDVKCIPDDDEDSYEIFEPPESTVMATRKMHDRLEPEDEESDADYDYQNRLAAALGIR
Chain of UniProt P12259 (P12259 1047-2224, chain 2 of 2): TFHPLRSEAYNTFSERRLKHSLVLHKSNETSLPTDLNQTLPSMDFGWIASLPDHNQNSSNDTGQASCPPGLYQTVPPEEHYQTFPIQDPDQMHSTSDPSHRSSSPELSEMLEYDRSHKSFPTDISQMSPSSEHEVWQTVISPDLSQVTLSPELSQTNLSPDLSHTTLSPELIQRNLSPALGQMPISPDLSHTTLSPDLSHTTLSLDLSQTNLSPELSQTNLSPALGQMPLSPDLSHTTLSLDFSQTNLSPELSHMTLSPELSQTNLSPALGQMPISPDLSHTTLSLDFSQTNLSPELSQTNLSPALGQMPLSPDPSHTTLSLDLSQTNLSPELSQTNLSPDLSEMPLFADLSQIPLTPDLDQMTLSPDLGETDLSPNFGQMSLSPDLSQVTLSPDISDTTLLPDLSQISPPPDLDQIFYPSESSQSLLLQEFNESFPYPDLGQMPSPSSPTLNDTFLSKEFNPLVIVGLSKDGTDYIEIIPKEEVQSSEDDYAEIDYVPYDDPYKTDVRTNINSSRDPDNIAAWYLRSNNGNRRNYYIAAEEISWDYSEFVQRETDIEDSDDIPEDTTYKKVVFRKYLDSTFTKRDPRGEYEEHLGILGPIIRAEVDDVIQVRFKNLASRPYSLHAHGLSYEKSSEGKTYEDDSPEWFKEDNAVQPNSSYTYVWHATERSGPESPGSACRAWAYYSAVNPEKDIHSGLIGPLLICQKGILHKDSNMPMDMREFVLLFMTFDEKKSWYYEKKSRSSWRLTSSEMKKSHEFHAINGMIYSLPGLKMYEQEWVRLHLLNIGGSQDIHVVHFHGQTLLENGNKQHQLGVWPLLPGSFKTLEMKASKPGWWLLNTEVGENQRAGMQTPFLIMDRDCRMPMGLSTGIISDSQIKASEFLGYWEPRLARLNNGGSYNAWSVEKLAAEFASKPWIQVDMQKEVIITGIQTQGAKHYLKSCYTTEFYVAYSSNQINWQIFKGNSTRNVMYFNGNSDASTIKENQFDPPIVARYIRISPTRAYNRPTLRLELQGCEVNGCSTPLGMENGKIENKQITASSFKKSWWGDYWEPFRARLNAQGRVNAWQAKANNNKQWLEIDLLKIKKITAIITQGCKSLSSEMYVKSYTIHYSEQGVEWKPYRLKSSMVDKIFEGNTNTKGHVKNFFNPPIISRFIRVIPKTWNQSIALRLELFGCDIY

For activated protein C, the “factor Va activity over time after addition of APC (inactivation by APC)” value was “the replacement of Arg-506 by Gln only prevents the inactivation of the Xa-activated form of factor V by APC (FIG. 8)”.
